The source of these data is patent publication US20060019335A1, “Compositions and methods to promote c-IAP autodegradation” (priority 2004, published 2006).

“Also recorded” adds a separate entry of the source.

One assay has as its system c-IAP1. Nature of the assay: Co-transfection of HeLa cells with c-IAP1 and Smac plasmids, Western blot. Format: cell-based, human. To be noted: for auto-ubiquitylation (E3 activity) of c-IAP1: co-transfection, FIG. 2A. How it is done:
(§1) Transfection of cultured Cells—HeLa cells were grown in DMEM supplemented with 10% fetal bovine serum. Cells were seeded onto 6-well plates the day before transfection and transfected at 70% confluence by using Lipofectin combined with Plus reagent (Invitrogen) according to the manufacture's protocols. The IAP expression plasmids (3 μg each for c-IAP1, c-IAP2 and XIAP, and 250 ng each for Livin αand Livin β) together with 2.5 μg of Smac expression plasmids or pcDNA3.1(−) blank plasmid were used for single-well transfection in the absence of antibiotics. The cells were harvested 12 hours after the transfection and lysed with 0.5% CHAPS in 20 mM HEPES (pH 7.4), 10 mM KCl, 1 mM MgCl2 and 1 mM DTT. The lysates were centrifuged and the protein concentrations of the supernatants were quantified by the modified Bradford method (36).
(§2) Western Blot analysis—Proteins were resolved by SDS-PAGE and transferred to nitrocellulose filters. The filters were blocked with 5% milk and probed with antibodies as indicated. The signals were visualized with the enhanced chemiluminescence method.
(§3) To investigate the effect of Smac polypeptide on IAP protein levels, HeLa cells were transfected with the expression vectors for Smac and various IAPs. Briefly, HeLa cells were either transfected with IAP alone (Lane 2, 4 and 6), or together with Smac polypeptide (Lane 3, 5 and 7), or with Smac polypeptide alone (Lane 1). Equal amounts of cell lysates (7 μg) were immunoblotted with either the HRP-conjugated anti-FLAG antibody (shown in the top panel) in order to detect N-terminal 3×FLAG tagged IAPs, or with the anti-c-Myc antibody (bottom panel) to detect C-terminal c-Myc tagged Smac. The ubiquitin fusion technique was used to secure the production of mature Smac protein with the expected N-terminal AVPI motif (6, 37).
Because it is known that the His^588 residue in the RING finger domain is important for the IAP E3 activity (22), this residue was mutated to test whether Smac stimulated the ubiquitylation-mediated degradation of both c-IAP1 and c-IAP2. In each case, His^588 in c-IAP1 and His^574 in c-IAP2 was mutated to Ala (H588A mutant and H574A mutant, respectively) and the results are depicted in FIGS. 2A and 2B. The c-IAP1 WT or H588A mutant plasmids together with either Smac WT or Smac ΔA mutant, or with pcDNA3.1 (−) blank plasmid were co-transfected into HeLa cells (FIG. 2A). The c-IAP2 WT or H574A mutant plasmids together with either Smac WT or Smac ΔA mutant, or with pcDNA3.1 (−) blank plasmid were co-transfected into HeLa cells (FIG. 2B). As controls, HeLa cells were also transfected with either Smac WT or ΔA plasmids together with the blank p3×FLAG-CMV-7 plasmid. The transfected cells were cultivated either in the absence (see lanes 1-7 of FIGS. 2A and 2B) or in the presence (see lanes 8-14 of FIGS. 2A and 2B) of MG132. Equal amounts of soluble proteins (7 μg) from the transfected cells were immunoblotted with either the HRP-conjugated anti-FLAG antibody (see top panel of FIGS. 2A and 2B) to detect N-terminal 3×FLAG tagged IAPs, or with the anti-c-Myc antibody (see middle panel of FIGS. 2A and 2B) to detect C-terminal c-Myc tagged Smac. The anti-Actin immunoblotting results were to show equal protein loading (see bottom panel of FIGS. 2A and 2B).

In another assay the target is XIAP (Homo sapiens, UniProt P98170). Nature of the assay: Co-transfection of HeLa cells with XIAP and Smac plasmids, Western blot. Format: cell-based. Also on record: expressed in transfected cells; host or cells: HeLa. The note with it: for XIAP ubiquitylation: co-transfection. How it is done: as §1, §2, §3
It is known that XIAP is ubiquitylated by its own E3 activity when expressed in HEK 293T cells and that this auto-ubiquitylation and subsequent degradation is stimulated by Reaper (26). In the current study, XIAP transiently expressed in HeLa cells was ubiquitylated as well; however, mono-ubiquitylation rather than poly-ubiquitylation of XIAP was the major product (see FIG. 3A). Briefly, XIAP WT or H467A mutant plasmids together with either Smac WT or ΔA, or with pcDNA3.1(−) blank plasmid, were co-transfected into the HeLa cells. As controls, HeLa cells were also transfected with either Smac WT or ΔA plasmids together with the blank p3×FLAG-CMV-7 plasmid. The transfected cells were cultivated either in the absence (see lanes 1-7 of FIG. 3A) or in the presence (see lanes 8-14 of FIG. 3A) of MG132. Equal amounts of soluble proteins (7 μg) from the transfected cells were immunoblotted with either the HRP-conjugated anti-FLAG antibody (see top panel of FIG. 3A) to detect N-terminal 3×FLAG tagged IAPs, or with the anti-c-Myc antibody (see middle panel of FIG. 3A) to detect Smac. The anti-Actin immunoblotting results were to show equal protein loading (see bottom panel of FIG. 3A).
For orientation: In western blotting, separated proteins are transferred to a membrane and probed.

Assay [1] has as its system IAP proteins (GST fusion form). Nature of the assay: GST pull-down of purified IAP proteins with Smac, silver staining. The note with it: equimolar concentrations, 2 hours at 4° C., FIG. 4. The format is binding, human. How it is done: The ability of various IAP proteins to bind Smac WT polypeptide and Smac ΔA mutant polypeptide was also examined. The results are depicted in FIG. 4. Briefly, purified IAP proteins (GST fusion form; as indicated in FIG. 4) were incubated with equimolar concentrations of either Smac or Smac ΔA in a buffer containing 20 mM phosphate (pH 7.4), 200 mM NaCl and 0.05% Tween 20 for 2 hours at 4° C. The GST-fused IAP proteins were pulled down by Glutathione Sepharose beads. The resulting […] were subjected to SDS-PAGE followed by silver staining. Lane M of FIG. 4 is the protein marker. […] The reason for this IBM-independent acceleration on XIAP and Livin ubiquitylation is unknown.

Setting [2] is: listed as Smac mutant lacking the initial Ala residue.
The mark [3] stands for this setting: mature Smac co-expressed, FIG. 1.

XIAP, sequence (P98170 whole entry): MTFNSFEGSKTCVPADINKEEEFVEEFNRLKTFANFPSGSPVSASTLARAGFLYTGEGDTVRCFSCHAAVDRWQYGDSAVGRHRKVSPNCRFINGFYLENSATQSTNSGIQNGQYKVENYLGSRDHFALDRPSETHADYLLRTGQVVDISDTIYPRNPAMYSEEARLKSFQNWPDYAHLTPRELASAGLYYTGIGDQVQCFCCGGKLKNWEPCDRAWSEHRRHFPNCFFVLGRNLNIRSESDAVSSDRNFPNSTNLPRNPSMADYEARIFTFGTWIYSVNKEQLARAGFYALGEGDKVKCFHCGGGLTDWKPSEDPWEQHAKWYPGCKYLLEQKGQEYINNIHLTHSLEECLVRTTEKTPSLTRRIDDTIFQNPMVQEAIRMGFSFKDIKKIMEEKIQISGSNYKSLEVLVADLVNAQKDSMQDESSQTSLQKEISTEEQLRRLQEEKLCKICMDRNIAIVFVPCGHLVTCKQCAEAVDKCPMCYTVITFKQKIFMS

B1: Smac ΔA: Smac mutant lacking the initial Ala (Ala deletion mutant polypeptide), used as negative control (protein, UniProt Q9NR28 22-239, looked up, variant A1*)
Diablo IAP-binding …: LCVPVVANFKKRCFSELIRPWHKTVTIGFGVTLCVPIAQKSEPHSLSSEALMRRAVSLVTDSTSTFLSQTTYALIEAITEYTKAVYTLTSLYRQYTSLLGKMNSEEEDEVWQVIIGARAEMTSKHQEYLKLETTWMTAVGLSEMAAEAAYQTGADQASITARNHIQLVKLQVEEVHQLSRKAETKLAEAQIEELRQKTQEEGEERAESEQEAYLRED
B1: the “auto-ubiquitylation (E3 activity) of c-IAP1” value in the assay on c-IAP1 is on record as “did not enhance the auto-ubiquitylation of c-IAP1”; with c-IAP1 (setting [2]) it was “did not promote the E3 activity”. The XIAP ubiquitylation entry with XIAP (FIG. 3A) was “stimulated the auto-ubiquitylation of XIAP and Livin”. Also, the “binding to IAP proteins” value in assay [1] is on record as “failure to bind”; in assay [1] (setting [2]) it was “did not bind IAP proteins”.

B2: Smac: wild type (WT) Smac polypeptide from Homo sapiens, SEQ ID NO 1, 239 amino acids; second mitochondria-derived activator of caspase (protein, listed as Homo sapiens)
chain: MAALKSWLSRSVTSFFRYRQCLCVPVVANFKKRCFSELIRPWHKTVTIGFGVTLCAVPIAQKSEPHSLSSEALMRRAVSLVTDSTSTFLSQTTYALIEAITEYTKAVYTLTSLYRQYTSLLGKMNSEEEDEVWQVIIGARAEMTSKHQEYLKLETTWMTAVGLSEMAAEAAYQTGADQASITARNHIQLVKLQVEEVHQLSRKAETKLAEAQIEELRQKTQEEGEERAESEQEAYLRED
Regarding B2, the “level of wild type c-IAP1” value in the assay on c-IAP1 (co-expression, absence of MG132, FIG. 2A) is “nearly complete disappearance of c-IAP1; also recorded: nearly non-detectable level”. Also, in the assay on c-IAP1 (co-expression, presence of MG132, FIG. 2A), the “levels of non-/mono-/di-ubiquitylated and highly ubiquitylated c-IAP1 forms” value was “reduction in the level of non-ubiquitylated and mono-/di-ubiquitylated wild type c-IAP1 and a concomitant increase in the level of highly ubiquitylated c-IAP1 forms”. Besides, in the assay with c-IAP1 (either in the absence or in the presence of MG132), the “level of E3-negative H588A c-IAP1” value is given as “did not cause a drastic change”. For the same molecule, in the assay with c-IAP1 (setting [3]), the “protein level of c-IAP1” value is listed as “significantly decreased”. In addition, in the assay with XIAP (co-expression, absence of MG132), the “level of XIAP” value is on record as “negligible effect”. Also, the “overall amount of XIAP” value with XIAP (co-transfected Smac, FIG. 3A) was “not significantly affected”. Further, in the assay with XIAP (FIG. 3A), the XIAP ubiquitylation entry is reported as “still promoted XIAP ubiquitylation”. The “protein level of XIAP” value in the assay with XIAP (setting [3]) is reported as “unaffected”. For the same molecule, the “binding to IAP proteins” value in assay [1] was “bind”.
